Assay results: patent US20240374671A1 (ACCELERON PHARMA, published 2024)
Changes are numbered by the printed parent chain. Where two headings read alike, the source gives them in different places. Blank lines part the entries; values can stand above or below the binder they belong to.

Key:
[1] = target: T1, monomeric hActRIIA (human, UniProt P27037 21-138, limits assumed); experiment: SPR (BIACORE), 37 C, series of concentrations (not printed on the sheet)
T1 construct: also called ActRIIA MONOMER; ActRIIA monomer

[2] = target: T2, dimeric hActRIIA (human, UniProt P27037 21-138); experiment: as above
T2 construct: also called ActRIIA DIMER; ActRIIA dimer

[3] = target: T3, dimeric hActRIIB (human, UniProt Q13705 25-130); experiment: SPR (Biacore), 37 C
T3 construct: also called ActRIIB DIMER; ActRIIB dimer
T3 sequence: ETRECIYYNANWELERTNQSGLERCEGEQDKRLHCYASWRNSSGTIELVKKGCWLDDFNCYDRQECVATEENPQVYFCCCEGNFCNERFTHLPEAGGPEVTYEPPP

[4] = target: T4, monomeric hActRIIB (human, UniProt Q13705 25-130, limits assumed); experiment: SPR (Biacore), 37 C
T4 construct: also called ActRIIB MONOMER; ActRIIB monomer
T4 sequence: T3 sequence

[5] = target: T1, monomeric hActRIIA; experiment: SPR (Biacore), 37 C
[6] = target: T2, dimeric hActRIIA; experiment: SPR (Biacore), 37 C
[7] = target: T5, human ActRIIB ECD (peptide library) (human, UniProt Q13705 25-130); experiment: Pepscan peptide library ELISA (linear 15-mers and CLIPS)
T5 construct: also called AcRIIB
T5 sequence: T3 sequence
Procedure: Mapping of the ActRIIB and ActRIIA ECD epitopes recognized by the antibodies was performed by Pepscan Presto BV using custom made peptide libraries. Sequences of ECDs of human ActRIIB and ActRIIA were converted into libraries of overlapping linear 15-mers and circularized 15-mer CLIPS using combinatorial matrix design. CLIPS (Chemical Linkage of Peptides onto Scaffolds) technology structurally fixes peptides into defined three-dimensional structures (single, double, triple, etc. loops) creating functional mimics of complex binding sites. Peptides were synthesized on solid support. Binding of antibodies to each of the synthesized peptides was tested by ELISA and binding affinities were quantified. Peptide constructs representing both parts of the discontinuous epitope in the correct conformation bind specific antibody with the highest affinity. […] Each peptide was given a score based on affinity.

[8] = target: T3, dimeric hActRIIB; experiment: SPR (Biacore), 37 C; remark: listed apart in the source
[9] = target: T1, monomeric hActRIIA; experiment: SPR (Biacore), 37 C; remark: listed apart in the source
[10] = target: T4, monomeric hActRIIB; experiment: SPR (Biacore), 37 C; remark: listed apart in the source
[11] = target: T2, dimeric hActRIIA; experiment: SPR (Biacore), 37 C; remark: listed apart in the source
[12] = target: T3, dimeric hActRIIB; experiment: SPR (BIACORE), 37 C, series of concentrations (not printed on the sheet)
Procedure: (§1) Kinetic characterization of G02 antibody binding to monomeric and dimeric hActRIIB and hActRIIA was performed using standard BIACORE®-based analysis at 37° C. FIGS. 8A-8D show kinetic characterization of G02 antibody binding to monomeric and dimeric hActRIIB and hActRIIA (FIG. 8A-8D, respectively) as determined by BIACORE®-based analysis at 37° C.

[13] = target: T4, monomeric hActRIIB; experiment: as above
Procedure: as §1

[14] = target: T1, monomeric hActRIIA; experiment: SPR (Biacore), 37 C; remark: listed apart in the source
Procedure: as §1

[15] = target: T2, dimeric hActRIIA; experiment: SPR (Biacore), 37 C; remark: listed apart in the source
Procedure: as §1

T1 sequence (P27037 21-138 limits assumed): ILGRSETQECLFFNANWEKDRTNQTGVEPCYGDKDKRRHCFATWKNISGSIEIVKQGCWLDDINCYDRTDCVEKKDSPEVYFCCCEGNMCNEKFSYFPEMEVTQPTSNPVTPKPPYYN
T2 sequence (P27037 21-138): as the sequence (P27037 21-138 limits assumed) above

B2: H01 (antibody, human IgG1, kappa, V domains shown)
VH: QVQLQESGPGLVKPSETLSLTCAVSGYSISSGVYWMWIRQPPGKGLEWIGSIVHSGHTYYNPSLKSRVTISVDTSKNQFSLKLSSVTAADTAVYYCARAGKYRWHGMDVWGQGTTVTVSS
VL: DIQMTQSPSSVSASVGDRVTITCRASQGISSWLAWYQQKPGKAPKLLIYAASNLQSGVPSRFSGSGSGTDFTLTISSLQPEDFATYYCQQAPDLPITFGGGTKVEIKR
notes: Human IgG
- Kd [3]: 0.353 nM
- koff [3]: 0.000127 s⁻¹
- kon [3]: 358000 M⁻¹ s⁻¹
- binding result [5]: no binding
- Kd [4]: 11.8 nM
- koff [4]: 0.023 s⁻¹
- kon [4]: 1.95e+06 M⁻¹ s⁻¹
- binding result [6]: no binding

B4: F02 (antibody, human IgG1, kappa, V domains shown)
VH: EVQLLESGGGLVQPGGSLRLSCAASGFTFSRYAMSWVRQAPGKGLEWVSGISGSGGATYYADSVKGRFTISRDNSKNTLYLQMNSLRAEDTAVYYCAKDPLSLLLGYFDYWGQGALVTVSS
VL: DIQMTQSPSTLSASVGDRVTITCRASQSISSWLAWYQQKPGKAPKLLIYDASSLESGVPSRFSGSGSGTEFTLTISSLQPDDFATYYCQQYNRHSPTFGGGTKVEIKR
notes: Human IgG; also called F02 variant; F02 optimized antibody
- Kd [8]: 0.738 nM
- koff [8]: 3.46e-05 s⁻¹
- kon [8]: 46900 M⁻¹ s⁻¹
- binding result [9]: no binding
- Kd [10]: 2.63 nM
- koff [10]: 0.000313 s⁻¹
- kon [10]: 119000 M⁻¹ s⁻¹
- binding result [11]: no binding

Other lines, results leading:

- binding result [1]: no binding
- binding result [2]: no binding
- Kd [3]: 1.14 nM
- koff [3]: 0.00022 s⁻¹
- kon [3]: 176000 M⁻¹ s⁻¹
- Kd [4]: 16.8 nM
- koff [4]: 0.0152 s⁻¹
- kon [4]: 905000 M⁻¹ s⁻¹
B1: G01 (antibody, human IgG1, kappa, V domains shown)
VH: QLQLQESGPGLVKPSETLSLTCTVSGGSISSSSYAWGWIRQPPGKGLEWIGSIYYSGSTYYNPSLKSRVTISVDTSKNQFSLKLSSVTAADTAVYYCARAGKYRWHGMDVWGQGTTVTVSS
VL: B2 VL
notes: Human IgG; also called G01 Parent; G01 (naïve parent)

- binding result [7]: binds
B3: I01 (antibody, human IgG4 S228P, kappa, V domains shown)
VH: EVQLLESGGGLVQPGGSLRLSCAASGFTFGSYGMTWVRQAPGKGLEWVSVISGSGGGTYYADSVKGRFTISRDNSKNTLYLQMNSLRAEDTAVYYCAKGPRIVGMDVWGQGTTVTVSS
VL: B2 VL with N53S, A91V, P92F, D93S, L94Y, I96L

- binding result [12]: no binding
- binding result [13]: no binding
- Kd [14]: 58 nM
- koff [14]: 0.0661 s⁻¹
- kon [14]: 1.14e+06 M⁻¹ s⁻¹
- Kd [15]: 1.48 nM
- koff [15]: 0.000275 s⁻¹
- kon [15]: 186000 M⁻¹ s⁻¹
B5: G02 (antibody, human IgG1, kappa, V domains shown)
VH: QVQLQESGPGLVKPSQTLSLTCTVSGGSISSGSYYWSWIRQHPGKGLEWIGYIYYSGSTYYNPSLKSRVTISVDTSKNQFSLKLSSVTAADTAVYYCARGLGMYYHVPFDIWGQGTMVTVSS
VL: EIVLTQSPATLSLSPGERATLSCRASQSVSSYLAWYQQKPGQAPRLLIYDASNRATGIPARFSGSGSGTDFTLTISSLEPEDFAVYYCQQYFHWPPTFGGGTKVEIKR
notes: Human IgG
